Biological target: B61/B51 (on B61/B51-matched allogeneic LCL)
Assay: cell-based or functional assay

QEPLYPVQVSSADARLMVFDKTEGTWRLLCSSRSNAR [hepsin peptide 48-84 (residues 48-84 of hepsin)] showed a Percent cell killing; B61/B51-matched allogeneic LCL + peptide; CD8+ T cells of donor of 27.1%.
